Laboratory results: the Human Domainome abundance scans (Beltran et al. 2025)
± gives the uncertainty stated by the source.

B1: Histone H1t, residues 44 to 112; numbered along this chain, P22492 (parent)
chain: VSKLITEALSVSQERVGMSLVALKKALAAAGYDVEKNNSRIKLSLKSLVNKGILVQTRGTGASGSFKLS

Variants of: B1
Test: abundance fitness (aPCA) (normalised: wild type 0, dead -1); higher = more abundant; growth selection in yeast, the domain comes from the species named
Conditions: Homo sapiens

Abundance fitness: each site, then its substitutions
N37: I 0.148 ± 0.16, V -0.161 ± 0.17, D -0.397 ± 0.24, P -0.173 ± 0.28, A 0.244 ± 0.36, M -0.45 ± 0.28, L -0.061 ± 0.11, H 0.093 ± 0.24, W -0.083 ± 0.38, R 0.077 ± 0.18, Y -0.289 ± 0.38, T -0.522 ± 0.33, F -0.178 ± 0.29, G -0.091 ± 0.12, S -0.013 ± 0.28
G31: Q -0.268 ± 0.039, M -0.224 ± 0.036, C -0.27 ± 0.22, H -0.366 ± 0.082, A -0.202 ± 0.16, V -0.149 ± 0.1, I -0.316 ± 0.063, F -0.285 ± 0.067, P -0.434 ± 0.048, R -0.306 ± 0.12, L -0.297 ± 0.031, E -0.89 ± 0.3, Y -0.066 ± 0.076, S -0.264 ± 0.042, D -0.752 ± 0.22, W -0.387 ± 0.2, N -0.357 ± 0.054, T -0.259 ± 0.042
A22: E -0.801 ± 0.36, L -0.393 ± 0.059, F -0.413 ± 0.07, D -0.118 ± 0.34, G -0.45 ± 0.3, I -0.699 ± 0.11, Y -0.034 ± 0.1, K -0.192 ± 0.24, T -0.305 ± 0.22, S 0.051 ± 0.098, Q -0.003 ± 0.16, W -0.101 ± 0.3, H -0.158 ± 0.23, V -0.358 ± 0.11, N -0.262 ± 0.33, C -0.034 ± 0.18
K24: H -0.694 ± 0.12, E -0.363 ± 0.054, D -1.33 ± 0.21, W -0.533 ± 0.064, P -1.22 ± 0.12, C -0.579 ± 0.091, G -0.485 ± 0.071, L -0.418 ± 0.039, M -0.295 ± 0.046, I -0.738 ± 0.079, Y -0.164 ± 0.069, S -0.656 ± 0.058, R -0.161 ± 0.045, F -0.494 ± 0.08, T -0.267 ± 0.047, N -0.359 ± 0.056
D33: I -0.121 ± 0.075, Q 0.042 ± 0.052, W 0.259 ± 0.098, T -0.025 ± 0.056, R 0.036 ± 0.065, E 0.2 ± 0.074, K -0.119 ± 0.097, N -0.254 ± 0.13, F 0.243 ± 0.059, A 0.063 ± 0.035, P -0.214 ± 0.037, V 0.029 ± 0.034, L -0.034 ± 0.033, S -0.021 ± 0.042, H 0.143 ± 0.078, M 0.115 ± 0.064, Y 0.144 ± 0.078
S39: A -0.005 ± 0.04
E35: Y -0.036 ± 0.065, P -0.31 ± 0.034, H -0.137 ± 0.06, N -0.064 ± 0.092, I -0.123 ± 0.059, T -0.061 ± 0.038, K 0.05 ± 0.053, S -0.134 ± 0.032, F -0.307 ± 0.047, Q -0.084 ± 0.04, M -0.157 ± 0.038
L20: H -0.465 ± 0.057, W -0.008 ± 0.038, M -0.022 ± 0.041, F 0.013 ± 0.032, P -0.841 ± 0.06, T -0.351 ± 0.046, K -0.239 ± 0.052, C -0.205 ± 0.038, E -0.046 ± 0.069, N -0.724 ± 0.061, D -0.346 ± 0.073, Q -0.5 ± 0.065, I -0.026 ± 0.036, V -0.048 ± 0.036, A -0.234 ± 0.054, Y 0.01 ± 0.035, R -0.537 ± 0.045, S -0.561 ± 0.036, G -0.412 ± 0.045
A30: E -0.404 ± 0.067, R 0.051 ± 0.038, Q -0.137 ± 0.053, T -0.048 ± 0.049, G -0.162 ± 0.045, L -0.224 ± 0.032, P -0.364 ± 0.052, M 0.021 ± 0.043, D -0.328 ± 0.093, Y -0.266 ± 0.07, I -0.318 ± 0.087, S -0.09 ± 0.04, N -0.271 ± 0.1, F -0.368 ± 0.055, C -0.136 ± 0.059, H -0.312 ± 0.09, V -0.158 ± 0.036, W -0.15 ± 0.041
V21: F -0.142 ± 0.026, L -0.062 ± 0.027, C -0.164 ± 0.11, D 0 ± 0.093, Y -0.207 ± 0.028, S 0.018 ± 0.04, W -0.16 ± 0.096, Q 0.181 ± 0.055, N 0.123 ± 0.03, E 0.038 ± 0.14, R 0.113 ± 0.082, P -0.199 ± 0.071, M -0.037 ± 0.029, I -0.067 ± 0.028, A 0.091 ± 0.1, H 0.061 ± 0.044
K36: D -0.387 ± 0.15, R -0.106 ± 0.033, S -0.25 ± 0.038, V -0.46 ± 0.053, Y -0.362 ± 0.092, G -0.251 ± 0.047, E -0.428 ± 0.069, I -0.628 ± 0.13, C -0.556 ± 0.07, H -0.432 ± 0.073, N -0.019 ± 0.11, W -0.626 ± 0.055, M -0.285 ± 0.064, Q -0.152 ± 0.044, L -0.358 ± 0.04, T -0.323 ± 0.048, P -0.62 ± 0.046, A -0.106 ± 0.047
Y32: I 0.022 ± 0.049, P -0.228 ± 0.034, K 0.064 ± 0.054, T -0.193 ± 0.036, F -0.072 ± 0.041, L 0.032 ± 0.028, N -0.114 ± 0.072, W -0.116 ± 0.061, C -0.391 ± 0.089, H -0.052 ± 0.063, R -0.055 ± 0.055, Q -0.121 ± 0.048, S -0.14 ± 0.031
V34: W -0.252 ± 0.042, T -0.068 ± 0.047, I -0.123 ± 0.093, C -0.179 ± 0.059, L -0.214 ± 0.03, M -0.098 ± 0.053, E -0.346 ± 0.049, D -0.327 ± 0.11, Q -0.309 ± 0.051, R -0.268 ± 0.036, S -0.199 ± 0.035, G -0.306 ± 0.041, K -0.104 ± 0.078, A -0.171 ± 0.036, Y -0.472 ± 0.12, P -0.212 ± 0.037, H -0.4 ± 0.092
A29: S -0.039 ± 0.037, I -0.248 ± 0.03, W -0.323 ± 0.059, R 0.002 ± 0.044, T -0.04 ± 0.052, Q -0.081 ± 0.065, F -0.276 ± 0.027, M -0.097 ± 0.03, C -0.088 ± 0.042, L -0.255 ± 0.027, K 0.153 ± 0.03, E 0.066 ± 0.053, D -0.085 ± 0.053, G -0.223 ± 0.048, H -0.236 ± 0.056, P -0.491 ± 0.087, V -0.215 ± 0.038
A28: S -0.114 ± 0.053, M -0.089 ± 0.036, G -0.106 ± 0.035, N -0.18 ± 0.066, V -0.098 ± 0.032, F -0.231 ± 0.033, Y -0.124 ± 0.04, L -0.087 ± 0.031, D -0.258 ± 0.061, W -0.327 ± 0.032, C -0.175 ± 0.035, R 0.003 ± 0.045, E -0.197 ± 0.054, I -0.059 ± 0.041
N38: Q -0.058 ± 0.1, D -0.632 ± 0.23, L 0.048 ± 0.066, G -0.122 ± 0.15, R -0.393 ± 0.28, E -0.061 ± 0.14, W 0.105 ± 0.22, T 0.109 ± 0.14, H -0.405 ± 0.39, A 0.106 ± 0.087, V 0.047 ± 0.085, P -0.168 ± 0.069, M 0.084 ± 0.16, I -0.162 ± 0.34, K -0.124 ± 0.36, S 0.044 ± 0.09
M18: T -0.006 ± 0.08, K 0.238 ± 0.051, L -0.077 ± 0.034, S 0.009 ± 0.11, W -0.374 ± 0.049, N 0.016 ± 0.077, V -0.318 ± 0.039, R 0.107 ± 0.072, Y -0.487 ± 0.076
S19: L -0.111 ± 0.03, E -0.558 ± 0.083, K -0.021 ± 0.049, V -0.11 ± 0.042, A -0.205 ± 0.071, Y -0.381 ± 0.048, Q -0.171 ± 0.054, F -0.043 ± 0.039, N -0.088 ± 0.085, G 0.147 ± 0.061, R -0.224 ± 0.055, C -0.155 ± 0.062, D 0.08 ± 0.08, T -0.056 ± 0.051, P -0.324 ± 0.073, W -0.145 ± 0.051, M -0.153 ± 0.039
L23: S -1 ± 0.06, N -0.95 ± 0.13, C -0.363 ± 0.077, P -0.885 ± 0.099, G -1.27 ± 0.2, D -1.22 ± 0.27, K -1.12 ± 0.088, I -0.087 ± 0.05, A -0.384 ± 0.094, H -1.05 ± 0.093, V -0.076 ± 0.051, Y -0.933 ± 0.088, R -0.942 ± 0.089, E -0.47 ± 0.14, F -0.197 ± 0.038, W -0.541 ± 0.061, M -0.226 ± 0.038
K25: G -0.231 ± 0.04, A -0.225 ± 0.048, L -0.862 ± 0.042, P -1.34 ± 0.21, N -0.171 ± 0.061, Y -0.827 ± 0.077, V -0.627 ± 0.032, E -0.085 ± 0.048, T -0.352 ± 0.062, W -0.602 ± 0.064, S -0.23 ± 0.046, I -0.697 ± 0.058, F -0.892 ± 0.064, M -0.785 ± 0.057, D -0.158 ± 0.058, H -0.325 ± 0.065
A26: I -0.171 ± 0.035, F -0.172 ± 0.03, V -0.064 ± 0.075, L -0.138 ± 0.028, S -0.121 ± 0.043, C -0.14 ± 0.064, Q -0.381 ± 0.073, H -0.167 ± 0.06, K 0.07 ± 0.049, D -0.954 ± 0.23, R -0.415 ± 0.11, N -0.401 ± 0.051, T -0.106 ± 0.062, P -0.906 ± 0.19, E -0.252 ± 0.21, M -0.033 ± 0.035
L27: C -0.394 ± 0.078, T -0.696 ± 0.059, D -0.677 ± 0.091, S -0.746 ± 0.046, K -0.999 ± 0.063, Q -1.06 ± 0.11, N -0.906 ± 0.069, I -0.116 ± 0.039, M -0.159 ± 0.038, P -1.06 ± 0.1, G -0.681 ± 0.1, F -0.221 ± 0.036, H -0.838 ± 0.09, W -0.371 ± 0.063, V -0.202 ± 0.037, R -1.12 ± 0.11, A -0.506 ± 0.092
